The assay deals with T1, 生物素化Zaire GP蛋白 (pIRES-Zaire GP-BirA-FLAG SP-) (Ebola virus (EBOV) subtype Zaire, UniProt Q05320 33-676).
T1 construct: range 33-676; also called Zaire-GP-Biotin; Zaire-GP-BirA细胞裂解液
T1 sequence: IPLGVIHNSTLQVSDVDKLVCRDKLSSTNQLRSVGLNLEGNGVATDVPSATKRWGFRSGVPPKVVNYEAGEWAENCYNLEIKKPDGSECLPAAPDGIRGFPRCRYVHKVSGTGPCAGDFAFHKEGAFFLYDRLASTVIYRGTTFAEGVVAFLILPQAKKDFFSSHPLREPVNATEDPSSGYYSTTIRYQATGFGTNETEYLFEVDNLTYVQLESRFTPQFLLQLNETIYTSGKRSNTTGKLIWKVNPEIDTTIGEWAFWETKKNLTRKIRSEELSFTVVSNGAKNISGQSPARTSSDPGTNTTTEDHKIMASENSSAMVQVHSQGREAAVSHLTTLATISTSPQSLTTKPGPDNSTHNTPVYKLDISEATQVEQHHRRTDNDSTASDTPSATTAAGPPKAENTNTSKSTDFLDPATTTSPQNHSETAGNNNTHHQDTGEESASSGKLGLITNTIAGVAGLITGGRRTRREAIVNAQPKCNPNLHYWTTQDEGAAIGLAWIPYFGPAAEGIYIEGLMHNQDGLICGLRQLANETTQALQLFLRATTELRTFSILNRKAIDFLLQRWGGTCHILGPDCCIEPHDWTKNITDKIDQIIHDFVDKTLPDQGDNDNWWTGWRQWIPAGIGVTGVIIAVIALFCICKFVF
Put plainly: indirect ELISA, […] (1:300) […].

The text below walks through data of patent publication CN107417788A (INST PASTEUR SHANGHAI CAS, dated 2017).

B1: S37-3 (antibody, V domains shown)
VH: EVQLQQSGPELVKPGASVKISCKASGYSFTGYFMNWVKQSHGKSLEWIGRINPYNGDTFYNQKFKGKATLTVDKSSSTAHMELLSLTSEDSAVYYCGRGLRAFLDYWGQGTTLTVSS
VL: DIVLTQSPATLSVTPGDRVSLSCRASQSISNYLHWYQQKSHESPRLLIKYASQSISGIPSRFSGSGSGTDFTLSINSVETEDFGMYFCQQSNSWPHTFGGGTKLEIK
notes: also called 单克隆抗体S37-3; S37-3上清
On to B1, for which the binding result is on record as “binds”.
